# Target: EBOV GP, soluble form of the full-length extracellular domain (Zaire ebolavirus, strain  …, UniProt Q05320)
# Experiment: ELISA
# Chain of EBOV GP, soluble form of the full-length extracellular domain (Q05320 33-650): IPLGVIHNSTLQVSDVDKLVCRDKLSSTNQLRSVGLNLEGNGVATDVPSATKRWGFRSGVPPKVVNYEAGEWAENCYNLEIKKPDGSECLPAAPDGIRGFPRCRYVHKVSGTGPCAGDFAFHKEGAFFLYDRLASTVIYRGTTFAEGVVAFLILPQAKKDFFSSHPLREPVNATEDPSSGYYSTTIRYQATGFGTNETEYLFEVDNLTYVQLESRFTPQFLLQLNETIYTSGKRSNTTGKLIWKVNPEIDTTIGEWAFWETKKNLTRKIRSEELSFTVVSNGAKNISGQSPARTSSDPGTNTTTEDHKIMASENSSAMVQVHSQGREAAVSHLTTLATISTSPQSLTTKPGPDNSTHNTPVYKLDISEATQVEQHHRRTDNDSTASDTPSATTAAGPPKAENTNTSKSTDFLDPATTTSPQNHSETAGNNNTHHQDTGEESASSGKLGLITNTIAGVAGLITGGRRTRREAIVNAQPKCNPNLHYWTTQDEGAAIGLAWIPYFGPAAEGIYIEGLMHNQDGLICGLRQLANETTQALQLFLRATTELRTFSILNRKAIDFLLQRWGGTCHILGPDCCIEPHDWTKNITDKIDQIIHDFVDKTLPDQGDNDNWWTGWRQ
binder,measurement,value
"BDBV289, human mAb (antibody, V domains shown) VH: QVQLVQSGAEVKKPGSSVKVSCKASGATFGSDTVTWVRQAPGQGLEWMGGIIPFFGEANYAQRFQGRVTITADKSTNTAYMELSSLRSEDTAVYFCARQINEMATFGEIHYYTYMDVWGQGTLVTVSS VL: GSELTQDPAVSVALGQTVRITCQGDSLRNYYASWYQQKPRQAPVLVFYGKNNRPSGIPDRFSGSSSGNTASLTISGAQAEDEADYYCNSRDSSSNHLVFGGGTKLTVL",binding result,binds

# — publication PMC4733404 (Cell, 2016)
